Where no end group is shown, it is not given here.
Target: sodium channel

Row | Binder | flow of ^22 Na into cells [%]
1 | RKKWNKWALSR (ends and bridges not checked) [proadrenomedullin N-terminal 10-20 peptide (proAM-N(10-20))] | 70
2 | ARLDVASEFRKKWNKWALSR (ends and bridges not checked) [proadrenomedullin N-terminal 20 peptide (proAM-N20)] | 30
